Measurements reported in US20140073563A1.

Molecular target: human FGFR1c together with human beta-Klotho (KLB) (human), P11362
Assay: cell-based or functional assay

human FGFR1c together with human beta-Klotho (KLB) (human), P11362, sequence (P11362 22-822, chain 1 of 2): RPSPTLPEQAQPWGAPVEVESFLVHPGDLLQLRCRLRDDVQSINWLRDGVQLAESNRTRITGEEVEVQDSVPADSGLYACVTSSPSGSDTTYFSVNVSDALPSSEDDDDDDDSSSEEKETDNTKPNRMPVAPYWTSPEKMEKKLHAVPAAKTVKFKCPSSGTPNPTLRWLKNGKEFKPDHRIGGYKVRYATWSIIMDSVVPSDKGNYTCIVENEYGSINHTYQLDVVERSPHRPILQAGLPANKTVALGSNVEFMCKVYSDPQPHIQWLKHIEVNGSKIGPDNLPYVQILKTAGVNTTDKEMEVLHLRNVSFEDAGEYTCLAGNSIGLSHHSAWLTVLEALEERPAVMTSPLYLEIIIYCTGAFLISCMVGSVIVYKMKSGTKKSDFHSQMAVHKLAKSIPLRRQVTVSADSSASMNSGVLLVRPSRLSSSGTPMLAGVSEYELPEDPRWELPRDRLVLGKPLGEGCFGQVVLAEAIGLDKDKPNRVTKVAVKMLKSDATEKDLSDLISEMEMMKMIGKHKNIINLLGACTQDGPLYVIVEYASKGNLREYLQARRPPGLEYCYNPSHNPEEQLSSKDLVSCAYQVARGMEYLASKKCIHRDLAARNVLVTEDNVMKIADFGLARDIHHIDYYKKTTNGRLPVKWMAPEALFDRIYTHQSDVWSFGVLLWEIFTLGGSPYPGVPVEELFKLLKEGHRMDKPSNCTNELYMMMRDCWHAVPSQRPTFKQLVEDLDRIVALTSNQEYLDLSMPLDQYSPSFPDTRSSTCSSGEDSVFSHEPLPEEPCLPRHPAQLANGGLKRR
human FGFR1c together with human beta-Klotho (KLB) (human), P11362, sequence (Q86Z14 whole entry, chain 2 of 2, further chain): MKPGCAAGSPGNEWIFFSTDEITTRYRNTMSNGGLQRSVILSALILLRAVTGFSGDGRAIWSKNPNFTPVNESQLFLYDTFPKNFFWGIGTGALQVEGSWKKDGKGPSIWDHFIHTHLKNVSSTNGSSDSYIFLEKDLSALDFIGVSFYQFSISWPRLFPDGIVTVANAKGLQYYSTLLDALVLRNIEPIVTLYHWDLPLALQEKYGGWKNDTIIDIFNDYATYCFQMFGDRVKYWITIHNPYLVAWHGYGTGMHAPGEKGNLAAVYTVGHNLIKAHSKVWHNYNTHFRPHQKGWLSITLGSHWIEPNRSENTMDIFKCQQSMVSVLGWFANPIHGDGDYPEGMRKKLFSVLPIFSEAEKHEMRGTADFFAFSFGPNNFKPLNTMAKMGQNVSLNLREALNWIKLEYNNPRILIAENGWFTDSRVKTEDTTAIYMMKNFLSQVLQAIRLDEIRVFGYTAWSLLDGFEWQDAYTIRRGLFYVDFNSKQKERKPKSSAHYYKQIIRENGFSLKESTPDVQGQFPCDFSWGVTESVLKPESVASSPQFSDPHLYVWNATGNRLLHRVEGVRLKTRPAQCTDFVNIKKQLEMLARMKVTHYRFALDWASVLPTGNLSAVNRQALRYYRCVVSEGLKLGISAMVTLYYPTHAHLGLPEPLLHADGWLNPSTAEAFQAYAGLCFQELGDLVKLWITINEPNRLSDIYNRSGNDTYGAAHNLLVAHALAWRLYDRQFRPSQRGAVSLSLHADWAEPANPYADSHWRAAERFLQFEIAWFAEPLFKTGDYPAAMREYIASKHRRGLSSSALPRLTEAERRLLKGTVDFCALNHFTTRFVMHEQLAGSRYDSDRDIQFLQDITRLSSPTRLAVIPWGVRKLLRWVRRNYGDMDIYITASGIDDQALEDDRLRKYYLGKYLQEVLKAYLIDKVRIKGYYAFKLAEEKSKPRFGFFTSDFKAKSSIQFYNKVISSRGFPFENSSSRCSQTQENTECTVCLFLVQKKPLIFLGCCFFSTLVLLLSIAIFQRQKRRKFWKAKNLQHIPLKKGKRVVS

- pERK ICW EC50: 0.135 nmol/L
- pFGFR ICW EC50: 4.3 nmol/L
B1: FGF21 wild type, Q9NSA1 29-209 (ligand)
chain: HPIPDSSPLLQPGGQVRQRYLYTDDAQQTEAHLEIREDGTVGGAADQSPESLLQLKALKPGVIQILGVKTSRFLCQRPDGALYGSLHFDPEACSFRELLLEDGYNVYQSEAHGLPLHLPGNKSPHRDPAPRGPARFLPLPGLPPAPPEPPGILAPQPPDVGSSDPLSMVGPSQGRSPSYAS
